T1: EIN3 full-length protein (ETHYLENE-…3 transcription factor) (Arabidopsis, UniProt O24606 1-628)
T1 construct: Full-length EIN3 in the direct yeast two-hybrid tests, cloned in pAS2 or pACT2; In the immunoblots it is the endogenous or overexpressed EIN3 from plant extracts; also called At3g20770
T1 sequence: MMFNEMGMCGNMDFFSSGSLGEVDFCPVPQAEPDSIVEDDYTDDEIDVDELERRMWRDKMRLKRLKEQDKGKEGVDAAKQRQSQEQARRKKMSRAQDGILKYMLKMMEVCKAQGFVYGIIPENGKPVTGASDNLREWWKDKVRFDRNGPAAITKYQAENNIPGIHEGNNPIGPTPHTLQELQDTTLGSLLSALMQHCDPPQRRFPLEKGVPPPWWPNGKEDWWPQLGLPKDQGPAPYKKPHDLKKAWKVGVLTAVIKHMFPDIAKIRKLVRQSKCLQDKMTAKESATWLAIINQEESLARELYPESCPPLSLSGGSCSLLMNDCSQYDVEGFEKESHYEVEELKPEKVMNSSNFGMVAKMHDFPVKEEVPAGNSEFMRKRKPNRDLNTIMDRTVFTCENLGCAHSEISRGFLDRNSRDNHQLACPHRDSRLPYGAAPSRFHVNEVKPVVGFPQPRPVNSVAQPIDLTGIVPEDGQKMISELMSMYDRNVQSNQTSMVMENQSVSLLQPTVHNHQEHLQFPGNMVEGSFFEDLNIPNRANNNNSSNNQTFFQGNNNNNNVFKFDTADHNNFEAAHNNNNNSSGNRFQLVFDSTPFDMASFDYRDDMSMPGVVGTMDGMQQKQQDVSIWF

B1: EBF1 (EIN3-binding F-box protein 1) (other)
chain: MSQIFSFAGENDFYRRGAIYPNPKDASLLLSLGSFADVYFPPSKRSRVVAPTIFSAFEKKPVSIDVLPDECLFEIFRRLSGPQERSACAFVSKQWLTLVSSIRQKEIDVPSKITEDGDDCEGCLSRSLDGKKATDVRLAAIAVGTAGRGGLGKLSIRGSNSAKVSDLGLRSIGRSCPSLGSLSLWNVSTITDNGLLEIAEGCAQLEKLELNRCSTITDKGLVAIAKSCPNLTELTLEACSRIGDEGLLAIARSCSKLKSVSIKNCPLVRDQGIASLLSNTTCSLAKLKLQMLNVTDVSLAVVGHYGLSITDLVLAGLSHVSEKGFWVMGNGVGLQKLNSLTITACQGVTDMGLESVGKGCPNMKKAIISKSPLLSDNGLVSFAKASLSLESLQLEECHRVTQFGFFGSLLNCGEKLKAFSLVNCLSIRDLTTGLPASSHCSALRSLSIRNCPGFGDANLAAIGKLCPQLEDIDLCGLKGITESGFLHLIQSSLVKINFSGCSNLTDRVISAITARNGWTLEVLNIDGCSNITDASLVSIAANCQILSDLDISKCAISDSGIQALASSDKLKLQILSVAGCSMVTDKSLPAIVGLGSTLLGLNLQQCRSISNSTVDFLVERLYKCDILS
notes: In the yeast two-hybrid assays the cDNA was cloned into pAS2 or pACT2 (Clontech), so the protein was a fusion with the vector's domain; also called FBL6; At2g25490
B2: ASK1, an Arabidopsis Skp1 protein (other, UniProt Q39255 1-160, looked up)
chain: MSAKKIVLKSSDGESFEVEEAVALESQTIAHMVEDDCVDNGVPLPNVTSKILAKVIEYCKRHVEAAASKAEAVEGAATSDDDLKAWDADFMKIDQATLFELILAANYLNIKNLLDLTCQTVADMIKGKTPEEIRTTFNIKNDFTPEEEEEVRRENQWAFE
notes: Yeast two-hybrid fusion in pAS2 or pACT2
B3: EBF2 (EIN3-binding F-box protein 2) (other)
chain: MSGIFRFSGDEDCLLGGSMYLSPGSCPGVYYPARKRLRVAATSFYSGFEEKQTSIDVLPEECLFEILRRLPSGQERSACACVSKHWLNLLSSISRSEVNESSVQDVEEGEGFLSRSLEGKKATDLRLAAIAVGTSSRGGLGKLQIRGSGFESKVTDVGLGAVAHGCPSLRIVSLWNLPAVSDLGLSEIARSCPMIEKLDLSRCPGITDSGLVAIAENCVNLSDLTIDSCSGVGNEGLRAIARRCVNLRSISIRSCPRIGDQGVAFLLAQAGSYLTKVKLQMLNVSGLSLAVIGHYGAAVTDLVLHGLQGVNEKGFWVMGNAKGLKKLKSLSVMSCRGMTDVGLEAVGNGCPDLKHVSLNKCLLVSGKGLVALAKSALSLESLKLEECHRINQFGLMGFLMNCGSKLKAFSLANCLGISDFNSESSLPSPSCSSLRSLSIRCCPGFGDASLAFLGKFCHQLQDVELCGLNGVTDAGVRELLQSNNVGLVKVNLSECINVSDNTVSAISVCHGRTLESLNLDGCKNITNASLVAVAKNCYSVNDLDISNTLVSDHGIKALASSPNHLNLQVLSIGGCSSITDKSKACIQKLGRTLLGLNIQRCGRISSSTVDTLLENLWRCDILY
notes: In the yeast two-hybrid assays the cDNA was cloned into pAS2 or pACT2 (Clontech), so the protein was a fusion with the vector's domain; also called AAR27072.1

Legend:
[1] = target: T1, EIN3 full-length protein (ETHYLENE-…3 …); assay: yeast two-hybrid, filter-lift beta-galactosidase
Source text: (§1) We then directly tested the possible interaction between EIN3 full-length protein and individual F-box proteins. Using genome-wide microarray experiments, we narrowed the search for EIN3-interacting F-box proteins by first testing those genes whose RNA levels were regulated by ethylene (Alonso et al., Science 301, 653-657, 2003; H. G. and J. R. E., unpublished data). From this gene list, two closely related candidate F-box proteins were identified which were able to interact with EIN3 in yeast two-hybrid assays (FIGS. 4C and 4E). We designated these two F-box proteins as EBF1 and EBF2 (for EIN3-binding F-box protein 1 and 2). EBF1 was previously named as FBL6 with no function assigned (Xiao and Jang, 2000). These two proteins share 57% identity in amino acid sequence (FIG. 4A), and each contains a well-conserved F-box motif in the amino-terminus and 18 tandem leucine-rich repeats (LRRs) in the carboxyl terminus (FIGS. 4A and 4B). Because LRR domains in several F-box proteins contribute to the substrate binding (Gagne et al., Proc Natl Acad Sci 99, 11519-11524, 2002), we tested whether the C-terminal LRR domains in EBF1 and EBF2 were sufficient for EIN3 interaction. […]

[2] = target: B1; assay: yeast two-hybrid
Source text: as §1

[3] = target: B3; assay: yeast two-hybrid
Source text: as §1

[4] = target: T1, EIN3 full-length protein (ETHYLENE-…3 …); assay: yeast two-hybrid (summary in Example 8)
Source text: as §1

Binder: B1
- binding result [1]: binds

Binder: B2
- binding result [2]: binds
- binding result [3]: binds

Binder: B3
- binding result [4]: binds
